# Test system: Escherichia coli TOP10
# Experiment: shrunken log2 fold change of peptide-encoding DNA abundance (4.5 h post-induction vs induction); higher = less antimicrobial activity (less host growth inhibition)
# Settings: time post-induction: 4.5 h; library: site-saturation at positions 5, 18, 19, 20
# 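Also: peptides expressed intracellularly from a pBAD plasmid library in pooled LB shake-flask culture, induced with 0.3% L-arabinose, DNA abundance read by NGS, three biological replicates, DESeq2 with apeglm shrinkage.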
row,Sequence,shrunken log2 fold change
1,RRIRLRPPRLPRPRPRPVEIPRP,0.0548
2,RRIRKRPPRLPRPRPRPKSWPRP,0.308
3,RRIRDRPPRLPRPRPRPQFPPRP,0.0234
4,RRIRSRPPRLPRPRPRPSPYPRP,-0.672
5,RRIRSRPPRLPRPRPRPNEGPRP,-0.0691
6,RRIRERPPRLPRPRPRPRAAPRP,0.448
7,RRIRLRPPRLPRPRPRPLQMPRP,-0.135
8,RRIRERPPRLPRPRPRPRMWPRP,0.302
9,RRIRFRPPRLPRPRPRPKILPRP,0.205
10,RRIRDRPPRLPRPRPRPSEEPRP,0.277
11,RRIRARPPRLPRPRPRPFMQPRP,-0.0876
12,RRIRSRPPRLPRPRPRPTMVPRP,0.0872
13,RRIRKRPPRLPRPRPRPPNWPRP,0.593
14,RRIRVRPPRLPRPRPRPHAGPRP,0.108
15,RRIRPRPPRLPRPRPRPHHEPRP,-0.066
16,RRIRRRPPRLPRPRPRPNTLPRP,-0.283
17,RRIRCRPPRLPRPRPRPRSYPRP,-0.233
18,RRIRTRPPRLPRPRPRPFNPPRP,-1.37
19,RRIRERPPRLPRPRPRPGQVPRP,0.126
20,RRIRKRPPRLPRPRPRPDNCPRP,-0.0122
21,RRIRRRPPRLPRPRPRPFPLPRP,0.49
22,RRIRTRPPRLPRPRPRPHQMPRP,0.0521
23,RRIRPRPPRLPRPRPRPCLSPRP,-0.143
24,RRIRRRPPRLPRPRPRPQFEPRP,0.16
25,RRIRGRPPRLPRPRPRPWGPPRP,0.427

row,Sequence,shrunken log2 fold change
1,RRIRGRPPRLPRPRPRPQSCPRP,0.195
2,RRIRWRPPRLPRPRPRPPRQPRP,0.209
3,RRIRPRPPRLPRPRPRPKQWPRP,-0.22
4,RRIRWRPPRLPRPRPRPMTMPRP,-0.385
5,RRIRPRPPRLPRPRPRPSNFPRP,-0.168
6,RRIRHRPPRLPRPRPRPNTTPRP,-0.019
7,RRIRGRPPRLPRPRPRPYKSPRP,-0.135
8,RRIRFRPPRLPRPRPRPSWDPRP,-0.152
9,RRIRERPPRLPRPRPRPDYDPRP,-0.021
10,RRIRCRPPRLPRPRPRPLVRPRP,0.0749
11,RRIRQRPPRLPRPRPRPPKHPRP,-0.142
12,RRIRYRPPRLPRPRPRPEIDPRP,-0.0347
13,RRIRHRPPRLPRPRPRPISIPRP,0.0201
14,RRIRFRPPRLPRPRPRPWHAPRP,-0.162
15,RRIRWRPPRLPRPRPRPSSFPRP,-0.00317
16,RRIRLRPPRLPRPRPRPGWCPRP,0.191
17,RRIRPRPPRLPRPRPRPKDIPRP,-0.801
18,RRIRNRPPRLPRPRPRPIGTPRP,0.000741
19,RRIRLRPPRLPRPRPRPPICPRP,-0.0611
20,RRIRSRPPRLPRPRPRPDISPRP,-0.0675
21,RRIRCRPPRLPRPRPRPTNYPRP,0.263
22,RRIRYRPPRLPRPRPRPKYCPRP,0.0325
23,RRIRLRPPRLPRPRPRPDWGPRP,0.222
24,RRIRKRPPRLPRPRPRPEPFPRP,0.0238
25,RRIRDRPPRLPRPRPRPCNQPRP,-0.285

row,Sequence,shrunken log2 fold change
1,RRIRRRPPRLPRPRPRPRMFPRP,0.556
2,RRIRDRPPRLPRPRPRPFKRPRP,-0.00875
3,RRIRWRPPRLPRPRPRPEFAPRP,1.02
4,RRIRWRPPRLPRPRPRPADYPRP,-0.123
5,RRIRARPPRLPRPRPRPGTFPRP,-0.125
6,RRIRDRPPRLPRPRPRPSICPRP,-0.0317
7,RRIRQRPPRLPRPRPRPPVVPRP,0.126
8,RRIRRRPPRLPRPRPRPDVNPRP,0.0369
9,RRIRERPPRLPRPRPRPCPWPRP,-0.278
10,RRIRMRPPRLPRPRPRPNGGPRP,0.112
11,RRIRWRPPRLPRPRPRPMWLPRP,0.244
12,RRIRPRPPRLPRPRPRPFLSPRP,-0.312
13,RRIRKRPPRLPRPRPRPGNQPRP,0.0471
14,RRIRTRPPRLPRPRPRPINDPRP,-0.293
15,RRIRCRPPRLPRPRPRPTYLPRP,-0.292
16,RRIRGRPPRLPRPRPRPYMIPRP,0.0548
17,RRIRYRPPRLPRPRPRPVKPPRP,0.00519
18,RRIRNRPPRLPRPRPRPRQDPRP,0.0815
19,RRIRDRPPRLPRPRPRPAIVPRP,0.41
20,RRIRQRPPRLPRPRPRPASAPRP,0.196
21,RRIRNRPPRLPRPRPRPLTQPRP,-0.328
22,RRIRSRPPRLPRPRPRPIRAPRP,0.106
23,RRIRSRPPRLPRPRPRPGNMPRP,-0.12
24,RRIRHRPPRLPRPRPRPWYTPRP,-0.17
25,RRIRKRPPRLPRPRPRPSWSPRP,-0.075

row,Sequence,shrunken log2 fold change
1,RRIRVRPPRLPRPRPRPSDDPRP,-0.417
2,RRIRMRPPRLPRPRPRPPRTPRP,1.46
3,RRIRQRPPRLPRPRPRPAMHPRP,-0.125
4,RRIRHRPPRLPRPRPRPKMCPRP,-0.00195
5,RRIRTRPPRLPRPRPRPADLPRP,0.0274
6,RRIRMRPPRLPRPRPRPVTNPRP,0.0903
7,RRIRFRPPRLPRPRPRPNLFPRP,-0.0917
8,RRIRHRPPRLPRPRPRPMQFPRP,0.00869
9,RRIRERPPRLPRPRPRPQCPPRP,-0.207
10,RRIRSRPPRLPRPRPRPTPTPRP,0.676
11,RRIRPRPPRLPRPRPRPWCSPRP,-0.201
12,RRIRCRPPRLPRPRPRPQFPPRP,-0.17
13,RRIRIRPPRLPRPRPRPWLMPRP,-0.202
14,RRIRYRPPRLPRPRPRPKFYPRP,0.0354
15,RRIRSRPPRLPRPRPRPTYGPRP,-0.303
16,RRIRRRPPRLPRPRPRPPYGPRP,0.0935
17,RRIRFRPPRLPRPRPRPQRCPRP,0.08
18,RRIRHRPPRLPRPRPRPCDQPRP,-0.000946
19,RRIRLRPPRLPRPRPRPKHMPRP,-0.0682
20,RRIRARPPRLPRPRPRPTYHPRP,-0.225
21,RRIRYRPPRLPRPRPRPLIPPRP,-0.671
22,RRIRSRPPRLPRPRPRPFRLPRP,-0.793
23,RRIRSRPPRLPRPRPRPGWKPRP,0.0342
24,RRIRDRPPRLPRPRPRPAYSPRP,0.0295
25,RRIRERPPRLPRPRPRPRFDPRP,1.26

row,Sequence,shrunken log2 fold change
1,RRIRWRPPRLPRPRPRPHLSPRP,-0.154
2,RRIRSRPPRLPRPRPRPQQSPRP,-0.235
3,RRIRERPPRLPRPRPRPTLWPRP,0.364
4,RRIRERPPRLPRPRPRPKKSPRP,-0.182
5,RRIRERPPRLPRPRPRPYPYPRP,-0.372
6,RRIRERPPRLPRPRPRPNEKPRP,-0.0183
7,RRIRERPPRLPRPRPRPFFGPRP,-0.217
8,RRIRSRPPRLPRPRPRPKKEPRP,0.00678
9,RRIRTRPPRLPRPRPRPFGWPRP,0.189
10,RRIRTRPPRLPRPRPRPWSEPRP,-0.364
11,RRIRTRPPRLPRPRPRPETYPRP,-0.275
12,RRIRWRPPRLPRPRPRPLAFPRP,0.153
13,RRIRKRPPRLPRPRPRPKVIPRP,0.156
14,RRIRLRPPRLPRPRPRPVVGPRP,0.103
15,RRIRCRPPRLPRPRPRPLLCPRP,-0.163
16,RRIRYRPPRLPRPRPRPLSWPRP,-0.0279
17,RRIRARPPRLPRPRPRPAYWPRP,0.393
18,RRIRIRPPRLPRPRPRPVDYPRP,-0.0672
19,RRIRQRPPRLPRPRPRPQDDPRP,-0.0165
20,RRIRSRPPRLPRPRPRPWPLPRP,-0.293
21,RRIRSRPPRLPRPRPRPIYKPRP,-0.243
22,RRIRNRPPRLPRPRPRPTWFPRP,0.415
23,RRIRTRPPRLPRPRPRPHNHPRP,-0.802
24,RRIRVRPPRLPRPRPRPAIVPRP,-0.149
25,RRIRSRPPRLPRPRPRPHLSPRP,-0.0791

row,Sequence,shrunken log2 fold change
1,RRIRVRPPRLPRPRPRPLSGPRP,0.179
2,RRIRIRPPRLPRPRPRPCTNPRP,-0.0668
3,RRIRLRPPRLPRPRPRPTRHPRP,0.156
4,RRIRKRPPRLPRPRPRPGYTPRP,-0.0679
5,RRIRWRPPRLPRPRPRPHDDPRP,0.0487
6,RRIRGRPPRLPRPRPRPDFEPRP,0.988
7,RRIRERPPRLPRPRPRPDQVPRP,-0.148
8,RRIRDRPPRLPRPRPRPARFPRP,0.446
9,RRIRHRPPRLPRPRPRPLVMPRP,-0.0133
10,RRIRNRPPRLPRPRPRPLTYPRP,-0.979
11,RRIRYRPPRLPRPRPRPVGSPRP,-0.277
12,RRIRNRPPRLPRPRPRPFTYPRP,-0.0143
13,RRIRKRPPRLPRPRPRPRMDPRP,0.236
14,RRIRFRPPRLPRPRPRPIRWPRP,0.0239
15,RRIRKRPPRLPRPRPRPLFWPRP,0.593
16,RRIRSRPPRLPRPRPRPPCAPRP,0.497
17,RRIRSRPPRLPRPRPRPMWIPRP,-0.0694
18,RRIRVRPPRLPRPRPRPNWYPRP,-0.523
19,RRIRERPPRLPRPRPRPSSSPRP,0.307
20,RRIRRRPPRLPRPRPRPIKRPRP,0.156
21,RRIRGRPPRLPRPRPRPYLIPRP,-0.0775
22,RRIRRRPPRLPRPRPRPDFDPRP,0.291
23,RRIRIRPPRLPRPRPRPCSRPRP,-0.139
24,RRIRQRPPRLPRPRPRPTKAPRP,0.0785
25,RRIRARPPRLPRPRPRPGWKPRP,0.167

# From the supplement of paper PMC9112550, “Optimization of the antimicrobial peptide Bac7 by deep mutational scanning” (BMC Biology, 2022)
